Experiment [1] addresses HLA-A*0201 (human).
In experiment [2] the target is HLA-A*0202 (human). Description: competition with 125I-labelled standard peptide for purified HLA.
Experiment [3] concerns the target HLA-A*0202 (human). Description: inhibition of 125I probe peptide binding to purified HLA, gel filtration.
Experiment [4] deals with HLA-A*0206 (human).
The target in experiment [5] is HLA-A*0203 (human).
The target of experiment [6] is HLA-A*0203 (human). Put plainly: inhibition of 125I probe peptide binding to purified HLA.
Experiment [7] deals with HLA-A*0201 (human). Described as above.
The target of experiment [8] is HLA-A*0206 (human). The description is as above.
Experiment [9] addresses HLA-A*0203 (human). Put plainly: competition with 125I probe peptide on purified HLA, gel filtration. For orientation: Size exclusion chromatography separates by hydrodynamic size, large species first.
In experiment [10] the target is HLA-A*6802 (human). Put plainly: competition with 125I-labeled probe peptide for purified HLA, gel filtration.
Experiment [11] concerns the target HLA-A*0206 (human). Described as above.
Experiment [12] has as its target HLA-A*0201 (human). The description is as above.
Experiment [13] deals with HLA-A*0203 (human). The description is as above.
In experiment [14] the target is HLA-A*6802 (human). Put plainly: inhibition of 125I probe peptide binding to purified HLA.
Experiment [15] has as its target HLA-A*0202 (human).
Experiment [16] deals with HLA-A*0201 (human). This is another data set of the same source.

Like-named read-outs stand apart in the source and are kept apart here. Bounds are passed on as bounds.

In the experiment with HLA-A*0201 [1], MMNDQLMFL [PSM.663] had an IC50 of at most 200 nM. LLLARAASLSL [PAP.6] showed an IC50 in the experiment with HLA-A*0201 [1] of at most 200 nM. For FLTLSVTWIGV [peptide 1419.27, PSA.3.V11], the IC50 in the experiment with HLA-A*0202 [2] came out at 3 nM. Regarding KLGSGNDFEV [PSM.514], the IC50 in the experiment with HLA-A*0201 [1] was over 200 nM. The molecule FLTLSVTWIGV [Peptide 63.0186 (PSA.3.V11)] showed an IC50 with HLA-A*0202 [3] of 3 nM. In the case of GLLGSTEWA [PSM.427], the IC50 in the experiment with HLA-A*0201 [1] is over 200 nM. As to ITLSVGCTGAV [peptide 1418.59 (HuK2.8.T2)], the IC50 in the experiment with HLA-A*0206 [4] came to 206 nM; in the experiment with HLA-A*0203 [5], 40 nM.

LLLARAASLSL [Peptide 63.0136 LLLARAASLSL (PAP.6)]: the IC50 is 5.3 nM with HLA-A*0203 [6], 8.1 nM with HLA-A*0201 [7] and 80 nM with HLA-A*0206 [8].

Molecule TVSGLQMAV [Peptide 60.0213 TVSGLQMAV (PAP.292.V9)] registered an IC50 in the experiment with HLA-A*0203 [9] of 122 nM.

On to ATFDIESKV [Peptide 1418.30], for which the IC50 with HLA-A*6802 [10] worked out at 258 nM; in the experiment with HLA-A*0206 [11], 82 nM; with HLA-A*0201 [12], 238 nM; with HLA-A*0203 [13] it was 44 nM. Regarding ALVLAGGFFL [PSM.25], the IC50 with HLA-A*0201 [1] is over 200 nM. Consider FLLFFWLDRSV [Peptide 63.0138 FLLFFWLDRSV (PAP.20)], for which the results for the IC50 with HLA-A*0203 [6] and with HLA-A*6802 [14] were 2.8 nM and 364 nM, respectively. In the experiment with HLA-A*0201 [1], LLHETDSAV [PSM.4] returned an IC50 of over 200 nM.

As to LMYSLVHNL [PSM.469], the IC50 in the experiment with HLA-A*0201 [1] was at most 200 nM. Same read-out and setting: the figure for MLLRLSEPAEL [PSA.118 (11-mer MLLRLSEPAEL)] is at most 200 nM. The same measure, in the same setting: to TLMSAMTNL [PAP.112] belongs at most 200 nM.

Turning to SLQCVSLHLV [peptide 1418.52 (HuK2.170.V10)], the IC50 with HLA-A*0202 [15] is 6.3 nM; with HLA-A*0206 [4], 5.2 nM; with HLA-A*0203 [5] it was 2.8 nM.

In the experiment with HLA-A*0201 [16], KVTEFMLCAGV [peptide 1418.71, HuK2.191.V11] gave an IC50 of 56 nM.

What is called IC50 is the concentration at which inhibition is half-maximal.

Source of the values: US20040037843A1 (published 2004).
